# Experimental data published in publication PMC11994318, “In vitro characterization of the yeast DEAH/RHA RNA helicase Dhr1” (The Journal of Biological Chemistry, 2025).
# T1: ΔN-Dhr1-ΔSKTTD (Saccharomyces cerevisiae, UniProt Q04217 376-665+671-1267, internal_change)
# T1 sequence: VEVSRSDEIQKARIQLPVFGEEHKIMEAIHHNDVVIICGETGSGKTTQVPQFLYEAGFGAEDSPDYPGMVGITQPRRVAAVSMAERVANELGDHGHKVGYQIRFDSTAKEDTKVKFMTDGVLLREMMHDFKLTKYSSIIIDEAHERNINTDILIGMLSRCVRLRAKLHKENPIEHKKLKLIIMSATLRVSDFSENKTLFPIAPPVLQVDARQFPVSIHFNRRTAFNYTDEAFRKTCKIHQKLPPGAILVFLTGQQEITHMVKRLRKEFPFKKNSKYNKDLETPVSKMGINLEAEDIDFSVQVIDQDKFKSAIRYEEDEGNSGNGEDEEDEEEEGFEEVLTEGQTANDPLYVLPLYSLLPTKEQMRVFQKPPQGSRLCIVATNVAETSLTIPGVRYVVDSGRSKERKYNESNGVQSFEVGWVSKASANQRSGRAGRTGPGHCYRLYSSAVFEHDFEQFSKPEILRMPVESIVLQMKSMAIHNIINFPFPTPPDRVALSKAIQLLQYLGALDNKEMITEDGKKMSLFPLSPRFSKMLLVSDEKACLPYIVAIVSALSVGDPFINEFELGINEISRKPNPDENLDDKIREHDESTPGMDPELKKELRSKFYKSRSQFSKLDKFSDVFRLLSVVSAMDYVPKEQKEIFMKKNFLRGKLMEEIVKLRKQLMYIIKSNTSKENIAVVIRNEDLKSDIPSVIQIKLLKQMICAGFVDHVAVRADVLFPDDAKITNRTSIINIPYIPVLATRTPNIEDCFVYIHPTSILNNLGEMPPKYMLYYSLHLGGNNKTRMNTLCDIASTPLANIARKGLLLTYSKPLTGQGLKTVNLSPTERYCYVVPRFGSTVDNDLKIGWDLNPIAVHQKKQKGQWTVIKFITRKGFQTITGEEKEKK
# T2: ΔN-Dhr1-WT (Saccharomyces cerevisiae, UniProt Q04217 376-1267)
# T2 sequence: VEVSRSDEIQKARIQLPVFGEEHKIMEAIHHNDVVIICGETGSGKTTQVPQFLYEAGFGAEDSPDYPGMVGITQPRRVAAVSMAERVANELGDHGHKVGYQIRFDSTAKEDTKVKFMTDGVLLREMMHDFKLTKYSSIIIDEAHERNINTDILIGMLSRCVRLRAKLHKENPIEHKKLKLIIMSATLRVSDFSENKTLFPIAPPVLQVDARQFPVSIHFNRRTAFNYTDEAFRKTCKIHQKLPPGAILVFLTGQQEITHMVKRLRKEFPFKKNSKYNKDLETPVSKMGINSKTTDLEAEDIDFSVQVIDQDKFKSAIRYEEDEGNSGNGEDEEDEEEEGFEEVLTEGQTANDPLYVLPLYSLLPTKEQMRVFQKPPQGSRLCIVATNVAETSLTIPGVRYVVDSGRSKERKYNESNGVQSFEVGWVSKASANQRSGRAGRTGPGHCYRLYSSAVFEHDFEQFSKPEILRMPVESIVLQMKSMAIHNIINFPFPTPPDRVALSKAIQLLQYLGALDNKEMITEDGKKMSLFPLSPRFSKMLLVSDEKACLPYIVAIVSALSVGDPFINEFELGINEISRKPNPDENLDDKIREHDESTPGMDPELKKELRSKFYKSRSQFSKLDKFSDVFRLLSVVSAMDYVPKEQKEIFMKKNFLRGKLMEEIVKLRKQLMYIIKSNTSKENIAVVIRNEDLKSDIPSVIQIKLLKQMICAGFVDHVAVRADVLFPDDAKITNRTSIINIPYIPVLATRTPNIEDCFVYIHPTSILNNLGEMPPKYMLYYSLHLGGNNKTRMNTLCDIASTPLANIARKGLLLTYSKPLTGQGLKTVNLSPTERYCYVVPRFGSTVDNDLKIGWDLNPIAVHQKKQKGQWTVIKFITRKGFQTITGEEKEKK
# What was measured:
# ΔN-Dhr1-ΔSKTTD = target: T1, ΔN-Dhr1-ΔSKTTD; experiment: fluorescence polarization; no nucleotide; 10 mM Mg2+; 40 mM Tris-HCl pH 8.0, 40 mM KCl, 150 mM NaCl, 2 mM NaOAc, 2 mM DTT, 10 mM MgCl2, 4% glycerol, 0.05% Tween 20, 25 °C, 10 min; 1.25 nM RNA, 0.625 nM-20 µM protein; details: protein: recombinant; tags: C-terminal His6 (pET21a); label: 5' 6-FAM; single strand
# ΔN-Dhr1-WT = target: T2, ΔN-Dhr1-WT; experiment: as above; details: protein: recombinant; tags: C-terminal His6 (pET21a); label: 5' 6-FAM; single strand
binder,measurement,setting,value
UUUUUUUUUUUUUUUUUUUU (ssRNA) [U20],Kd,ΔN-Dhr1-ΔSKTTD,60 ± 10 nM
same,Kd,ΔN-Dhr1-WT,300 ± 20 nM
